Values joined by “and” are separate entries in the source; they are usually repeats but may differ in a detail not shown here. Identical values can stand only once.
How the values were obtained:
[1] = target: T1, human OX40 expressed on cells (human, UniProt P43489 29-277); experiment: flow cytometry, activated human CD4+ T cells, donor 3
T1 construct: also called CD134; TNFRSF4
T1 sequence: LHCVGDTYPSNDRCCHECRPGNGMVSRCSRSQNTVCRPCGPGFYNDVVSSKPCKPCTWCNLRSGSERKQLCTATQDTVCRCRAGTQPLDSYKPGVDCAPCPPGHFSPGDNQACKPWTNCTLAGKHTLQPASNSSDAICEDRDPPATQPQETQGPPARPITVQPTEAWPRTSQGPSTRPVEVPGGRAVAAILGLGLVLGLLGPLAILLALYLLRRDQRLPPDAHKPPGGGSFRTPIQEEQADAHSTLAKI
Experimental: (§1) Healthy human donor PBMCs were purified essentially as described in Example 7. The cell concentration was adjusted to 2×10⁶ cells per mL (final concentration) in assay medium and plated in 6-well plates (Greiner, cat. no. 657160). PBMCs were stimulated with 0.3 μg/mL anti-CD3 ([…] Technologies, cat. no. 60011) and 0.5 μg/mL anti-CD28 antibodies (BioLegend, cat. no. 302934) and cultured for two days at 37° C., 5% CO₂. Next, the PBMCs were harvested, counted and brought to a concentration of 2×10⁶ cells per mL in FACS buffer 1 (DPBS with 2% heat-inactivated FBS and 2 mM ethylenediaminetetraacetic acid [EDTA]). […] After 60 min at RT, the cells were prepared for flow cytometric analyses. To this end, the cells were washed twice with 150 μL FACS buffer 1 and 30 μL/well cell-surface antibody mix (Table 9) in FACS buffer 1 containing antibody against human Fcγ antibody (Table 9) and fixable viability dye eFluor780 (1:1,500) was added. The staining procedures were carried out at 4° C. for 15-20 min protected from light. Stained cells were washed twice with 120-150 μL FACS buffer 1 (5 min, 460×g, RT) and resuspended in 60-100 μL FACS buffer 1 for direct flow cytometric analyses. Flow cytometric data were acquired on a FACSymphony A3 and analyzed with FlowJo software.

[2] = target: T2, C1q (from normal human serum) (human, UniProt P02745 23-245; P02746 28-253; P02747 29-245); experiment: flow cytometry, C1q from 20 % normal human serum on antibody-opsonised activated CD4+ T cells, FITC anti-C1q
T2 construct: also called complement factor C1q
T2 sequence (P02745 23-245 limits assumed, chain 1 of 3): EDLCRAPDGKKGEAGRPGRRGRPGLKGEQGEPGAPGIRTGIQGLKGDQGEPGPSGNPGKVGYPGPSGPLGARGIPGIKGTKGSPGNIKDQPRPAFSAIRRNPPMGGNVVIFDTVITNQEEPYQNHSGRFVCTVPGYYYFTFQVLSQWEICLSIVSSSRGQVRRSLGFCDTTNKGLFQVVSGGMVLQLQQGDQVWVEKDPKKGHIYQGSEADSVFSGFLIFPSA
T2 sequence (P02746 28-253 limits assumed, chain 2 of 3): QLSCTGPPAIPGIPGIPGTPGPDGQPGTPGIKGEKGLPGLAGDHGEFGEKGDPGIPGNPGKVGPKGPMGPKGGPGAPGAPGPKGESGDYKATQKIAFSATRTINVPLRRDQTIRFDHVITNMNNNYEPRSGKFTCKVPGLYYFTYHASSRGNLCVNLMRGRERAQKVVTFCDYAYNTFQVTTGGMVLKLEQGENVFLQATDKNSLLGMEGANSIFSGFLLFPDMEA
T2 sequence (P02747 29-245 limits assumed, chain 3 of 3): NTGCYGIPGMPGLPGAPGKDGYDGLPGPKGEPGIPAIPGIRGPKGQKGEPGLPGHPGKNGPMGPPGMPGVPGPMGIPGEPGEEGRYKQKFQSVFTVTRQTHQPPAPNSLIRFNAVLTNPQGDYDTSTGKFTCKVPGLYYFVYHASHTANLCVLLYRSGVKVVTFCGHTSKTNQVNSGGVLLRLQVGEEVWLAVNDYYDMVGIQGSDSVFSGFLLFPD
Experimental: Next, cells were washed twice with cold FACS buffer, pelleted, and resuspended in 80 μL FACS buffer supplemented with viability marker TO-PRO™-3 Iodide (Invitrogen, cat. no. T3605; diluted 1:10,000). […] Binding curves were analyzed using nonlinear regression analysis (sigmoidal dose-response with variable slope) using GraphPad Prism software. Binding of OX40 antibodies to the activated T cells was assessed after the incubation step with serial dilutions of antibodies. […] Next, cells were washed twice with cold FACS buffer, pelleted, and resuspended in 80 μL FACS buffer supplemented with viability marker TO-PRO-3 Iodide (diluted 1:10,000). Antibody binding was analyzed by flow cytometry on a BD FACSCelesta Cell Analyzer. Binding curves were analyzed using nonlinear regression analysis (sigmoidal dose-response with variable slope) using GraphPad Prism software.

[3] = target: T1, human OX40 expressed on cells; experiment: flow cytometry, activated human CD4+ T cells, mean of 3 donors
Experimental: as §1

[4] = target: T1, human OX40 expressed on cells; experiment: flow cytometry, loss of sOX40L (2 µg/mL) binding to activated human CD8+ T cells; competitor sOX40L
Experimental: (§2) Stimulated PBMCs were pelleted, resuspended in FACS buffer 2 (DPBS with 2% heat-inactivated FBS [Sigma-Aldrich, cat. no. F7524] and 2 mM EDTA [Sigma-Aldrich, cat. no. 03690]), and seeded (100,000 cells/well) in round-bottom 96-well plates (VWR International GmbH, cat. no. 734-197). […] Next, cells were washed twice in FACS buffer, and incubated with 30 μL of the antibody panel described in Table 11 diluted in FACS buffer 2 containing 1:1,500 Fixable Viability Stain eFluor 780 at 4° C. for 20 min, protected from light. The cells were subsequently washed twice with 120-150 μL FACS buffer 2 and measured on a BD FACSCelesta flow cytometer using a BD High Throughput sampler and subsequent analysis was done using FlowJo software.

[5] = target: T1, human OX40 expressed on cells; experiment: flow cytometry, activated human CD4+ T cells, with 2 µg/mL sOX40L, n=3
Experimental: as §2

B1: IgG1-CD134-003-HC6LC2-P329R-E345R (antibody)
heavy: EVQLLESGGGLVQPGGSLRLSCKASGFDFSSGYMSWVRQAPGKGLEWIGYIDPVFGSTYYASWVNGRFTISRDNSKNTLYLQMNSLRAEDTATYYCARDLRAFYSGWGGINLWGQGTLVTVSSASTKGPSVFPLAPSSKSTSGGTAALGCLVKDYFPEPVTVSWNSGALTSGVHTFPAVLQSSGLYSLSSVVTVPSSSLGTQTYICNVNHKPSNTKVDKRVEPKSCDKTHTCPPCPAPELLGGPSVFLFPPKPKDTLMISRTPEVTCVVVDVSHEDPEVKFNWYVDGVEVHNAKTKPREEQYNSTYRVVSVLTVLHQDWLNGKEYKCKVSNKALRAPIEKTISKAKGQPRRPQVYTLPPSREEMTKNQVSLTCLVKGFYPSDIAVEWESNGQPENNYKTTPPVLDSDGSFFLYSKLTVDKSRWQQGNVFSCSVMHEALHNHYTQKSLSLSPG
light: AAVLTQSPSSLSASVGDRVTITCQSSQIVVNNNFLSWYQQKPGKAPKLLIYDASNLASGVPDRFSGSGSGTDFTFTISSLQPEDIATYYCLGGYDDDAENAFGGGTKVEIKRTVAAPSVFIFPPSDEQLKSGTASVVCLLNNFYPREAKVQWKVDNALQSGNSQESVTEQDSKDSTYSLSSTLTLSKADYEKHKVYACEVTHQGLSSPVTKSFNRGEC
notes: humanized; human IgG1 with P329R and E345R (Eu numbering), kappa; also called IgG1-CD134-003-HC6LC2-RR
EC50 [1]: 0.0187 µg/mL | binding result [2]: no binding (tested: 30 µg/mL antibody) | EC50 [3]: 0.0209 µg/mL | IC50 [4]: 0.084 µg/mL | EC50 [5]: 0.054 µg/mL and 0.359 nM
